# Experimental data published in patent publication US20240400708A1.
# Target: feline FcRn complex (FcRn-α subunit and β-microglobulin), biotin labeled (feline)
# Assay: SPR, pH 6
row,Binder,Kd [nM]
1,"feline IgG1a S252Y/S434F/Q311W (antibody, part only; not given: Variable domains, not shown: another chain or arm of the molecule) constant: ASTTAPSVFPLAPSCGTTSGATVALACLVLGYFPEPVTVSWNSGALTSGVHTFPAVLQASGLYSLSSMVTVPSSRWLSDTFTCNVAHPPSNTKVDKTVRKTDHPPGPKPCDCPKCPPPEMLGGPSIFIFPPKPKDTLYISRTPEVTCLVVDLGPDDSDVQITWFVDNTQVYTAKTSPREEQFNSTYRVVSVLPILHWDWLKGKEFKCKVNSKSLPSPIERTISKAKGQPHEPQVYVLPPAQEELSRNKVSVTCLIKSFHPPDIAVEWEITGQPEPENNYRTTPPQLDSDGTYFVYSKLSVDRSHWQRGNTYTCSVSHEALHFHHTQKSLTQSPGK",164
2,"feline IgG1a S252Y/S434Y (antibody, part only; not given: Variable domains, not shown: another chain or arm of the molecule) constant: ASTTAPSVFPLAPSCGTTSGATVALACLVLGYFPEPVTVSWNSGALTSGVHTFPAVLQASGLYSLSSMVTVPSSRWLSDTFTCNVAHPPSNTKVDKTVRKTDHPPGPKPCDCPKCPPPEMLGGPSIFIFPPKPKDTLYISRTPEVTCLVVDLGPDDSDVQITWFVDNTQVYTAKTSPREEQFNSTYRVVSVLPILHQDWLKGKEFKCKVNSKSLPSPIERTISKAKGQPHEPQVYVLPPAQEELSRNKVSVTCLIKSFHPPDIAVEWEITGQPEPENNYRTTPPQLDSDGTYFVYSKLSVDRSHWQRGNTYTCSVSHEALHYHHTQKSLTQSPGK",116
3,"feline IgG1a T256S (antibody, part only; not given: Variable domains, not shown: another chain or arm of the molecule) constant: ASTTAPSVFPLAPSCGTTSGATVALACLVLGYFPEPVTVSWNSGALTSGVHTFPAVLQASGLYSLSSMVTVPSSRWLSDTFTCNVAHPPSNTKVDKTVRKTDHPPGPKPCDCPKCPPPEMLGGPSIFIFPPKPKDTLSISRSPEVTCLVVDLGPDDSDVQITWFVDNTQVYTAKTSPREEQFNSTYRVVSVLPILHQDWLKGKEFKCKVNSKSLPSPIERTISKAKGQPHEPQVYVLPPAQEELSRNKVSVTCLIKSFHPPDIAVEWEITGQPEPENNYRTTPPQLDSDGTYFVYSKLSVDRSHWQRGNTYTCSVSHEALHSHHTQKSLTQSPGK",2140
4,"feline IgG1a S252Y/S434F (antibody, part only; not given: Variable domains, not shown: another chain or arm of the molecule) constant: ASTTAPSVFPLAPSCGTTSGATVALACLVLGYFPEPVTVSWNSGALTSGVHTFPAVLQASGLYSLSSMVTVPSSRWLSDTFTCNVAHPPSNTKVDKTVRKTDHPPGPKPCDCPKCPPPEMLGGPSIFIFPPKPKDTLYISRTPEVTCLVVDLGPDDSDVQITWFVDNTQVYTAKTSPREEQFNSTYRVVSVLPILHQDWLKGKEFKCKVNSKSLPSPIERTISKAKGQPHEPQVYVLPPAQEELSRNKVSVTCLIKSFHPPDIAVEWEITGQPEPENNYRTTPPQLDSDGTYFVYSKLSVDRSHWQRGNTYTCSVSHEALHFHHTQKSLTQSPGK",1970

# Stronger by Kd, values ahead:
row,Kd [nM],Binder
1,78.1,"feline IgG1a S252Y/S428Y/S434Y (antibody, part only; not given: variable domains and light chain, not shown: another chain or arm of the molecule) constant: ASTTAPSVFPLAPSCGTTSGATVALACLVLGYFPEPVTVSWNSGALTSGVHTFPAVLQASGLYSLSSMVTVPSSRWLSDTFTCNVAHPPSNTKVDKTVRKTDHPPGPKPCDCPKCPPPEMLGGPSIFIFPPKPKDTLYISRTPEVTCLVVDLGPDDSDVQITWFVDNTQVYTAKTSPREEQFNSTYRVVSVLPILHQDWLKGKEFKCKVNSKSLPSPIERTISKAKGQPHEPQVYVLPPAQEELSRNKVSVTCLIKSFHPPDIAVEWEITGQPEPENNYRTTPPQLDSDGTYFVYSKLSVDRSHWQRGNTYTCSVYHEALHYHHTQKSLTQSPGK"
2,67.7,"feline IgG1a S252Y/S428Y/Q311W (antibody, part only; not given: Variable domains, not shown: another chain or arm of the molecule) constant: ASTTAPSVFPLAPSCGTTSGATVALACLVLGYFPEPVTVSWNSGALTSGVHTFPAVLQASGLYSLSSMVTVPSSRWLSDTFTCNVAHPPSNTKVDKTVRKTDHPPGPKPCDCPKCPPPEMLGGPSIFIFPPKPKDTLYISRTPEVTCLVVDLGPDDSDVQITWFVDNTQVYTAKTSPREEQFNSTYRVVSVLPILHWDWLKGKEFKCKVNSKSLPSPIERTISKAKGQPHEPQVYVLPPAQEELSRNKVSVTCLIKSFHPPDIAVEWEITGQPEPENNYRTTPPQLDSDGTYFVYSKLSVDRSHWQRGNTYTCSVYHEALHSHHTQKSLTQSPGK"
